The values below come from article doi:10.1101/488536, “The Ca^2+ sensor protein CMI1 fine tunes root development, auxin distribution and responses” (bioRxiv, 2018).

For one experiment, the target named is T1, GST-ICR1 (Arabidopsis, UniProt Q8LE98 1-344).
T1 construct: ICR1, Arabidopsis; source: E. coli Rosetta (DE3), purified (Glutathione sepharose)
T1 sequence (looked up): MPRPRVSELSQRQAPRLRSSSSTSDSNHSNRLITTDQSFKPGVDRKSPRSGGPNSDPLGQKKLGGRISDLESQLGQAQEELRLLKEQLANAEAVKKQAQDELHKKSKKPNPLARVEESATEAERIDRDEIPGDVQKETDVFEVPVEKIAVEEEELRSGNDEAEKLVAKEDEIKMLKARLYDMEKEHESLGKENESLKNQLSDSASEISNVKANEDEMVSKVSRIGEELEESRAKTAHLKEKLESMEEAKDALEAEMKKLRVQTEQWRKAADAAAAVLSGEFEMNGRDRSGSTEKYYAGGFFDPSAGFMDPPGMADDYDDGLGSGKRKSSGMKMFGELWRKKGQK
The experiment is described as follows: pull-down; GST-ICR1 (1.2 μg) or GST (0.4 μg) on Glutathione sepharose, 0.5 μg His6-CMI1; 20 mM Tris-HCl pH 7.5, 5 mM CaCl2, 0.1 mg/mL BSA, 200 mM NaCl, 1% Triton X-100, RT; wash with 1 M NaCl. As to conditions: both partners purified.

In a further experiment the target is T2, His6-ICR1 (Arabidopsis, UniProt Q8LE98 1-344).
T2 construct: ICR1, Arabidopsis; also called His-ICR1; source: E. coli Rosetta (DE3), purified (Ni-NTA)
T2 sequence (looked up): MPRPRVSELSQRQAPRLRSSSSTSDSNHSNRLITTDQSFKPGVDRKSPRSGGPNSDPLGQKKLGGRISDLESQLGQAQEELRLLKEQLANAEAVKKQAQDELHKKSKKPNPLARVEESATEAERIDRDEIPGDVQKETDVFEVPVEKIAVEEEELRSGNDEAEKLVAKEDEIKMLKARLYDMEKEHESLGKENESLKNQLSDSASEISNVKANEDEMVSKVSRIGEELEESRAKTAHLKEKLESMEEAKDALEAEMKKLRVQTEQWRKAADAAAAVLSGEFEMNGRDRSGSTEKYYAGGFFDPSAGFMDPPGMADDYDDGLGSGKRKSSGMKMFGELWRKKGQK
The experiment in a line: co-IP; His6-CMI1 and His6-ICR1, 1 μg each, in 300 μL Ca^2+ reaction buffer (20 mM Tris-HCl pH 7.5, 5 mM CaCl2, 0.1 mg/mL BSA, 200 mM NaCl, 1% Triton X-100), RT; anti-CMI1 antibodies and Protein A beads; blot with anti poly-His. As to conditions: both partners purified.

B1: His6-CMI1 (natural protein, Arabidopsis, UniProt O81831 1-130, looked up)
chain: MASPKSPTRPTQQNPQPNFHDFLPTMAGNLGGEGLIGELCNGFELLMDREKGVITFESLRRNAAAVLGLGDLTDEDVRCMIKEGDFDCDGALNQMEFCVLMFRLSPDLMEASRCLVTEVIEEEFGFTRRH
notes: CMI1, Arabidopsis, At4g27280; also called His-CMI1; source: E. coli Rosetta (DE3), purified (Ni-NTA)
On to B1, for which the binding result in the experiment with GST-ICR1 and in the experiment with His6-ICR1 was “binds” throughout.
